In publication PMC10204187, “The effects of nature‐inspired amino acid substitutions on structural and biochemical properties of the E. coli L‐asparaginase EcAIII” (Protein Science : A Publication of the Protein Society, 2023) one finds Km, kcat and X-ray crystal structure data, which are given here for eight molecules.

Sequences and labels used below:
B1: EcAIII (Escherichia coli K-12) (protein)
chain 1: GKAVIAIHGGAGAISRAQMSLQQELRYIEALSAIVETGQKMLEAGESALDVVTEAVRLLEECPLFNAGIGAVFTRDETHELDACVMDGNTLKAGAVAGVSHLRNPVLAARLVMEQSPHVMMIGEGAENFAFARGMERVSPEIFSTSLRYEQLLAARKEGATVLDHSGAPLDEKQKMG
chain 2: TVGAVALDLDGNLAAATSTGGMTNKLPGRVGDSPLVGAGCYANNASVAVSCTGTGEVFIRALAAYDIAALMDYGGLSLAEACERVVMEKLPALGGSGGLIAIDHEGNVALPFNTEGMYRAWGYAGDTPTTGIYREKGDTVATQ
notes: untagged as described; EcAIII gene in pET11d, bacterial expression; precursor autoproteolytically matured to subunits alpha and beta from one gene, (alphabeta)2; purified by DEAE and SEC
B2: EcAIII (Escherichia coli K-12; M200I) (protein)
chain 1: GKAVIAIHGGAGAISRAQMSLQQELRYIEALSAIVETGQKMLEAGESALDVVTEAVRLLEECPLFNAGIGAVFTRDETHELDACVMDGNTLKAGAVAGVSHLRNPVLAARLVMEQSPHVMMIGEGAENFAFARGMERVSPEIFSTSLRYEQLLAARKEGATVLDHSGAPLDEKQKMG
chain 2: TVGAVALDLDGNLAAATSTGGITNKLPGRVGDSPLVGAGCYANNASVAVSCTGTGEVFIRALAAYDIAALMDYGGLSLAEACERVVMEKLPALGGSGGLIAIDHEGNVALPFNTEGMYRAWGYAGDTPTTGIYREKGDTVATQ
notes: as for B1
B3: EcAIII (Escherichia coli K-12; M200K) (protein)
chain 1: GKAVIAIHGGAGAISRAQMSLQQELRYIEALSAIVETGQKMLEAGESALDVVTEAVRLLEECPLFNAGIGAVFTRDETHELDACVMDGNTLKAGAVAGVSHLRNPVLAARLVMEQSPHVMMIGEGAENFAFARGMERVSPEIFSTSLRYEQLLAARKEGATVLDHSGAPLDEKQKMG
chain 2: TVGAVALDLDGNLAAATSTGGKTNKLPGRVGDSPLVGAGCYANNASVAVSCTGTGEVFIRALAAYDIAALMDYGGLSLAEACERVVMEKLPALGGSGGLIAIDHEGNVALPFNTEGMYRAWGYAGDTPTTGIYREKGDTVATQ
notes: as for B1
B4: EcAIII (Escherichia coli K-12; M200T) (protein)
chain 1: GKAVIAIHGGAGAISRAQMSLQQELRYIEALSAIVETGQKMLEAGESALDVVTEAVRLLEECPLFNAGIGAVFTRDETHELDACVMDGNTLKAGAVAGVSHLRNPVLAARLVMEQSPHVMMIGEGAENFAFARGMERVSPEIFSTSLRYEQLLAARKEGATVLDHSGAPLDEKQKMG
chain 2: TVGAVALDLDGNLAAATSTGGTTNKLPGRVGDSPLVGAGCYANNASVAVSCTGTGEVFIRALAAYDIAALMDYGGLSLAEACERVVMEKLPALGGSGGLIAIDHEGNVALPFNTEGMYRAWGYAGDTPTTGIYREKGDTVATQ
notes: as for B1
B5: EcAIII (Escherichia coli K-12; M200L) (protein)
chain 1: GKAVIAIHGGAGAISRAQMSLQQELRYIEALSAIVETGQKMLEAGESALDVVTEAVRLLEECPLFNAGIGAVFTRDETHELDACVMDGNTLKAGAVAGVSHLRNPVLAARLVMEQSPHVMMIGEGAENFAFARGMERVSPEIFSTSLRYEQLLAARKEGATVLDHSGAPLDEKQKMG
chain 2: TVGAVALDLDGNLAAATSTGGLTNKLPGRVGDSPLVGAGCYANNASVAVSCTGTGEVFIRALAAYDIAALMDYGGLSLAEACERVVMEKLPALGGSGGLIAIDHEGNVALPFNTEGMYRAWGYAGDTPTTGIYREKGDTVATQ
notes: as for B1
B6: EcAIII (Escherichia coli K-12; M200W) (protein)
chain 1: GKAVIAIHGGAGAISRAQMSLQQELRYIEALSAIVETGQKMLEAGESALDVVTEAVRLLEECPLFNAGIGAVFTRDETHELDACVMDGNTLKAGAVAGVSHLRNPVLAARLVMEQSPHVMMIGEGAENFAFARGMERVSPEIFSTSLRYEQLLAARKEGATVLDHSGAPLDEKQKMG
chain 2: TVGAVALDLDGNLAAATSTGGWTNKLPGRVGDSPLVGAGCYANNASVAVSCTGTGEVFIRALAAYDIAALMDYGGLSLAEACERVVMEKLPALGGSGGLIAIDHEGNVALPFNTEGMYRAWGYAGDTPTTGIYREKGDTVATQ
notes: as for B1

Substrate in one data set: NC(=O)C[C@H](N)C(=O)O
The data set is described as follows: purified protein. The note with it: 20 mM Tris-HCl pH 8.0, 20 °C, L-Asn 0-84 mM. The format is biochemical, Escherichia coli.
Take B1: the Km (commonly the concentration of substrate that gives half-maximal velocity) worked out at 22 ± 3 mM; the kcat (in general, the number of substrate molecules converted per active site and unit of time at saturation) was 501 ± 22.3 s⁻¹. B2: the Km amounted to 35 ± 4 mM and the kcat amounted to 632 ± 37.9 s⁻¹. The corresponding values for B3 are 40 ± 9 mM and 127 ± 11.9 s⁻¹. For B4 the same measures were 64 ± 6 mM and 217 ± 10.6 s⁻¹. For B5 the same measures were 37 ± 5 mM and 195 ± 12.7 s⁻¹. For the molecule B6, the Km amounted to 36 ± 10 mM and the kcat turned out to be 290 ± 37.3 s⁻¹.

Another data set has as its target T1, EcAIII (Escherichia coli, UniProt P37595, M200L).
T1 construct: gene iaaA; untagged as described; EcAIII gene in pET11d, bacterial expression; precursor autoproteolytically matured to subunits alpha and beta from one gene, (alphabeta)2; purified by DEAE and SEC
Briefly: X-ray crystal structure. The data set is classed as binding. The note with it: covalent; beta-acyl-enzyme intermediate on Thr179, chain D.
On to `NC(=O)C[C@H](N)C(=O)O` [L-Asn], for which the X-ray crystal structure entry is “in the structure of variant M200L in chain D, we identified an acyl‐enzyme intermediate”.

In the next data set the target is T2, EcAIII (Escherichia coli, UniProt P37595, M200T).
T2 construct: gene iaaA; untagged as described; EcAIII gene in pET11d, bacterial expression; precursor autoproteolytically matured to subunits alpha and beta from one gene, (alphabeta)2; purified by DEAE and SEC
Briefly: X-ray crystal structure. The format is binding. The following applies: M200T#m monoclinic, 1.84 Å; Gly added at 1:1 molar ratio; active site, two of four sites.
Turning to `NCC(=O)O` [Gly], the X-ray crystal structure result is reported as “In the structure M200T#m, glycine molecules were found in two out of four active sites”.
